Measurements from article PMC10570036, “Yeast transcription factor Msn2 binds to G4 DNA”.

Legend:
[1] = target: T1, GST-Msn2(596-704) zinc-finger domain (Saccharomyces cerevisiae, UniProt P33748 596-704); assay: EMSA; folded in 100 mM K+; EMSA: oligos (0.1 uM) folded in 10 mM Tris-HCl pH 7.5, 100 mM KCl or LiCl; binding in 10 mM Tris-HCl pH 8.0, 1 mM DTT, 0.01% NP-40, 5% glycerol, 50 uM ZnSO4, room temperature 30 min; pull-down: 400 pmol biotin oligo folded in 100 mM KCl or LiCl, streptavidin beads, yeast whole cell lysate; settings: protein: recombinant, tags: N-terminal GST (pGEX4T1), label: 5' Cy5
T1 sequence: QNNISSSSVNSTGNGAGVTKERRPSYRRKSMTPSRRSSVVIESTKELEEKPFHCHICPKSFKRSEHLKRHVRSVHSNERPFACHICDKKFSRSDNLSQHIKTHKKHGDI

[2] = target: T1, GST-Msn2(596-704) zinc-finger domain; assay: EMSA; folded in 100 mM K+; 50 uM Zn2+; EMSA: oligos (0.1 uM) folded in 10 mM Tris-HCl pH 7.5, 100 mM KCl or LiCl; binding in 10 mM Tris-HCl pH 8.0, 1 mM DTT, 0.01% NP-40, 5% glycerol, 50 uM ZnSO4, room temperature 30 min; pull-down: 400 pmol biotin oligo folded in 100 mM KCl or LiCl, streptavidin beads, yeast whole cell lysate; settings: protein: recombinant, tags: N-terminal GST (pGEX4T1), label: 5' Cy5
[3] = target: T1, GST-Msn2(596-704) zinc-finger domain; assay: EMSA; 100 mM K+; EMSA: oligos (0.1 uM) folded in 10 mM Tris-HCl pH 7.5, 100 mM KCl or LiCl; binding in 10 mM Tris-HCl pH 8.0, 1 mM DTT, 0.01% NP-40, 5% glycerol, 50 uM ZnSO4, room temperature 30 min; pull-down: 400 pmol biotin oligo folded in 100 mM KCl or LiCl, streptavidin beads, yeast whole cell lysate; settings: protein: recombinant; tags: N-terminal GST (pGEX4T1); label: 5' Cy5 on sense strand; blunt
[4] = target: T1, GST-Msn2(596-704) zinc-finger domain; assay: EMSA; EMSA: oligos (0.1 uM) folded in 10 mM Tris-HCl pH 7.5, 100 mM KCl or LiCl; binding in 10 mM Tris-HCl pH 8.0, 1 mM DTT, 0.01% NP-40, 5% glycerol, 50 uM ZnSO4, room temperature 30 min; pull-down: 400 pmol biotin oligo folded in 100 mM KCl or LiCl, streptavidin beads, yeast whole cell lysate; settings: protein: recombinant; tags: N-terminal GST (pGEX4T1); label: 5' Cy5 on sense strand; blunt
[5] = target: T1, GST-Msn2(596-704) zinc-finger domain; assay: EMSA; folded in K+ or Li+; no significant interaction; EMSA: oligos (0.1 uM) folded in 10 mM Tris-HCl pH 7.5, 100 mM KCl or LiCl; binding in 10 mM Tris-HCl pH 8.0, 1 mM DTT, 0.01% NP-40, 5% glycerol, 50 uM ZnSO4, room temperature 30 min; pull-down: 400 pmol biotin oligo folded in 100 mM KCl or LiCl, streptavidin beads, yeast whole cell lysate; settings: protein: recombinant; tags: N-terminal GST (pGEX4T1); label: 5' Cy5; G4

B1: Cy5-TPS1pG4Mut (ssDNA)
DNA: CCGCTGAGCAGGTCAGAGCAGAGACTCTCAGAGAGACGCCA
[1]
  binding result: no binding

B2: Cy5-ATG39pG4Mut (ssDNA)
DNA: GGACCGAGAGCACACCGAGATAGAGAGTCCGGAGAGTTAAC
[1]
  binding result: no binding

B3: Cy5-SµG (structured_DNA)
DNA: GAGCTGGGGTGAGCTGGGCTGAGCTGGGGTGAGCTGGGCTGAGCT
[1]; G4
  binding result: binds

B4: Cy5-BRCA1-G3 (structured_DNA)
DNA: TGGGTGTTGTTGGGGGAGGGAAATGGGT
[2]; parallel G4 in K+
  Kd: 37.8 ± 11.4 nM

B5: Cy5-ATG7 G4 (structured_DNA)
DNA: ATTCTTGGGGCTGGGGTCCCTTGGGGAACTGTATTGGGTGAACC
[1]; G4
  binding result: binds

B6: Cy5-TPS1pG4 (structured_DNA)
DNA: CCGCTGGGCAGGTCAGGGCAGGGGCTCTCAGGGGGGCGCCA
[1]; G4
  binding result: binds

B7: dsCTT1 (dsDNA)
DNA 1: CTCTTTTTCAAGGGGATCACCGGTAAGGGGCCAATCTGTG
DNA 2: CACAGATTGGCCCCTTACCGGTGATCCCCTTGAAAAAGAG
[3]
  binding result: binds

B8: Cy5-c-KIT2 (structured_DNA)
DNA: GGGCGGGCGCGAGGGAGGGG
[1]; G4
  binding result: no binding

B9: Cy5-ATG39pG4 (structured_DNA)
DNA: GGACCGGGGGCACACCGGGGTAGGGGGTCCGGAGGGTTAAC
[2]; intramolecular parallel G4
  Kd: 30.2 ± 7.2 nM

B10: dsCTT1STREMut (dsDNA)
DNA 1: CTCTTTTTCATGTGTATCACCGGTATGTGTCCAATCTGTG
DNA 2: CACAGATTGGACACATACCGGTGATACACATGAAAAAGAG
[4]
  binding result: no binding

B11: c-KIT2Long (structured_DNA)
DNA: CCCGGGCGGGCGCGAGGGAGGGGAGG
[5]
  binding result: no binding
